{"source": "patent US20220211817A1", "about": "“CONTROLLED-RELEASE CNP AGONISTS WITH LOW NPR-C BINDING” (ASCENDIS PHARMA GROWTH DISORDERS A/S, priority 2016, published 2022)", "key": {"recombinant human NEP": {"target": "T1, recombinant human NEP (Homo sapiens, UniProt P08473)", "T1 construct": "purchased Enzo Life Sciences GmbH, Lörrach, Germany", "T1 sequence (P08473 whole entry)": "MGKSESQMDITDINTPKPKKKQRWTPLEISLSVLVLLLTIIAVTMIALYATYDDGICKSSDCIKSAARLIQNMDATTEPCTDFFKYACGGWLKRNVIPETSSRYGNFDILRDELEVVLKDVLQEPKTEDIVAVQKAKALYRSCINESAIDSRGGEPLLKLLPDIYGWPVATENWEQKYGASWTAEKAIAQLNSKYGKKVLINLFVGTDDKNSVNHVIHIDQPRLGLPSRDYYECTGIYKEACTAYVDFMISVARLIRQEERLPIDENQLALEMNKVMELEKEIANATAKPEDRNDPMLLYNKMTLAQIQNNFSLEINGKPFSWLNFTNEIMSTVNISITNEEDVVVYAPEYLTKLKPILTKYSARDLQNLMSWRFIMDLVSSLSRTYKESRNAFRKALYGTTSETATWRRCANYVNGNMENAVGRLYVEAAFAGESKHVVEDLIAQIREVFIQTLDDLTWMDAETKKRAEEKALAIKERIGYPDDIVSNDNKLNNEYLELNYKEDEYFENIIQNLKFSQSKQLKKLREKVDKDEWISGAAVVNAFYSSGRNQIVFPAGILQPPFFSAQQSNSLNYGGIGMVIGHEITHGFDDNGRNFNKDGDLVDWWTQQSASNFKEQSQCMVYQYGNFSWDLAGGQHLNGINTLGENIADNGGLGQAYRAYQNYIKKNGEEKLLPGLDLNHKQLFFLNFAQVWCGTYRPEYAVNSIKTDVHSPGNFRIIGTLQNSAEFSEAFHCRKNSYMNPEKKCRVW", "assay": "Digest of CNP variants by Neutral Endopeptidase in vitro", "type": "in vitro ADME", "details": "100 μg CNP equivalents/mL, pH 7.4, 37° C., up to 4 days, normalized to mean CNP-34 or CNP-38 half life", "excerpt": "Samples were taken at different time intervals. […] The resulting reaction products were assigned using HPLC-MS."}, "[1]": {"details": "cynomolgus monkey, in vivo, sc"}, "[2]": {"assay": "Pharmacokinetic study of transient conjugates 10f and 11i in cynomolgus monkeys", "details": "single subcutaneous, 0.146 mg CNP-38 eq/kg"}, "Male Crl:CD1(ICR) mice": {"system": "Male Crl:CD1(ICR) mice", "assay": "Evaluation of cardiovascular effects in the conscious telemetered mouse (subcutaneous administration)", "type": "in vivo", "details": "800 μg CNP-38 (eq)/kg subcutaneous; for change in MAP at the 5, 15, and 30 min post dose sampling time points (in words): compared to predose", "experimental": "Male Crl:CD1(ICR) mice (age range 8-13 weeks and body weight range 27.3-35.6 g at start of dosing) were surgically implanted with a TA11PA-C10 telemetry transmitter (Data Sciences International (DSI)) in the carotid artery. The body of the transmitter was placed subcutaneously in the lateral flank of the mouse. The mice were dosed subcutaneously in a latin square crossover design with at least 72 hours between dosing occasions. […] At least four mice were included at each dose level. […] Each time point was presented as the average value of five minute's recording prior to the time point. The monitoring period was selected to cover exposure to the test items both prior to and after Tmax."}, "[3]": {"assay": "Pharmacokinetic profile of conjugate 11i after subcutaneous single-dose administration to cynomolgus monkeys", "details": "single s.c. 40 μg CNP-38 eq/kg", "experimental": "As internal standard deuterated CNP-38 conjugate was used.\n200 μL of the supernatant were transferred into a new well-plate and evaporated to dryness (under a gentle nitrogen stream at 35° C.). […] After 3 hours incubation at 37° C. […] 10 μL were injected into the UHPLC-MS system."}, "healthy volunteers [4]": {"system": "healthy volunteers", "details": "CNP injection; cited from earlier work"}, "[5]": {"details": "after iv administration; cited from earlier work"}, "[6]": {"assay": "Pharmacokinetic study of permanent conjugate 12 g in cynomolgus monkeys", "type": "in vivo", "experimental": "As internal standard deuterated CNP-38 peptide was used.\nAfter 4 hours incubation at 37° C. […] The eluates were transferred into vials. 10 μL were injected into the UPLC-MS system."}, "healthy volunteers [7]": {"system": "healthy volunteers", "details": "Phase 1 study; cited from earlier work"}, "[8]": {"assay": "Pharmacokinetic profile of CNP-38 after subcutaneous single-dose administration to cynomolgus monkeys", "details": "single s.c. 40 μg/kg", "description": "This study was performed in order to test the pharmacokinetics of CNP-38 after subcutaneous (s.c.) administration in cynomolgus monkeys. Three male monkeys (2-4 years old, 3-5 kg) received a single s.c. injection at a dose of 40 μg/kg of CNP-38.\nMethod: Plasma levels of CNP were analysed using a commercially available competitive radioimmuno-assay (RK-012-03, Phoenix Pharmaceuticals, CA). The assay was applied essentially as described by the manufacturer.\nA few changes to the supplied assay protocol were made. These changes included using in-house CNP calibrant and QC samples to secure consistency between assay runs."}}, "note": "Read-outs that look alike come from different tables or passages of the source. Bridge positions count the residues as written; N and C are the ends. Side chains are listed from the residue outwards. Ends that are not written are not given here. reversible linker = not defined here"}
{"molecule": "Permanent N-Terminal CNP-38 PEG 5 kDa Conjugate ({PEG 5 kDa}-LQEHPNARKYKGANKKGLSKGCFGLKLDRIGSMSGLGC; disulfide 22-38; also: permanent PEG attachment; UniProt P23582 89-126, looked up, fragment) [Compound 15e]", "values": [{"measurement": "half life norm.", "setting": "recombinant human NEP", "value": "Almost no proteolysis"}]}
{"molecule": "Reversible Lys26 CNP-38 PEG2×20 kDa Conjugate (LQEHPNARKYKGANKKGLSKGCFGLKLDRIGSMSGLGC; not fully specified (residue 26); ends and bridges not checked; also: reversible linker structure not given here; UniProt P23582 89-126, looked up, fragment) [Compound 10f]", "values": [{"measurement": "dose site reactions", "setting": "[1]", "value": "No dose site reactions were observed"}, {"measurement": "tolerability of dose administrations", "setting": "[2]", "value": "well tolerated"}]}
{"molecule": "Reversible Lys26 CNP-38 PEG4×10 kDa Conjugate (LQEHPNARKYKGANKKGLSKGCFGLK([reversible linker-PEG 4×10 kDa])LDRIGSMSGLGC; ends and bridges not checked; also: reversible linker structure not given here; UniProt P23582 89-126, looked up, fragment) [Compound 11i]", "values": [{"measurement": "HR (heart rate)", "setting": "Male Crl:CD1(ICR) mice", "value": "not impacted"}, {"measurement": "MAP 5 min post dose (mean ± SD)", "setting": "Male Crl:CD1(ICR) mice", "value": "122.8 ± 5.9", "unit": "mmHg"}, {"measurement": "MAP 15 min post dose (mean ± SD)", "setting": "Male Crl:CD1(ICR) mice", "value": "121.5 ± 7.5", "unit": "mmHg"}, {"measurement": "MAP 30 min post dose (mean ± SD)", "setting": "Male Crl:CD1(ICR) mice", "value": "111.5 ± 13.7", "unit": "mmHg"}, {"measurement": "blood pressure (conclusion)", "setting": "Male Crl:CD1(ICR) mice", "value": "did not decrease blood pressure"}, {"measurement": "change in MAP at the 5, 15, and 30 min post dose sampling time points (in words)", "setting": "Male Crl:CD1(ICR) mice", "value": "same physiological increase in MAP"}, {"measurement": "dose site reactions", "setting": "[1]", "value": "No dose site reactions were observed"}, {"measurement": "terminal half life", "setting": "[1]", "value": "72 to 96", "unit": "h"}, {"measurement": "tolerability", "setting": "[3]", "value": "well tolerated"}, {"measurement": "tolerability of dose administrations", "setting": "[2]", "value": "well tolerated"}]}
{"molecule": "CNP: C-type natriuretic peptide as named in the background section", "values": [{"measurement": "effect on blood pressure and heart rate", "setting": "healthy volunteers [4]", "value": "transient but significant decrease in both systolic and diastolic blood pressure with a significant increase in heart rate"}, {"measurement": "half-life", "setting": "[5]", "value": 2, "unit": "min"}]}
{"molecule": "Permanent Lys16 CNP-34 PEG 5 kDa Conjugate (PNARKYKGANKKGLSK(PEG 5 kDa)GCFGLKLDRIGSMSGLGC; cysteine pairing not given here; UniProt P23582 93-126, looked up, fragment) [Compound 17e]", "values": [{"measurement": "half life norm.", "setting": "recombinant human NEP", "value": 54.23, "unit": "h"}]}
{"molecule": "Permanent Lys26 CNP-38 PEG4×10 kDa Conjugate [Compound 12g]", "values": [{"measurement": "half life norm.", "setting": "recombinant human NEP", "value": "Almost no proteolysis"}, {"measurement": "bioavailability", "setting": "[6]; cynomolgus monkey, in vivo", "value": "ca. 50%"}, {"measurement": "dose site reactions", "setting": "[6]; cynomolgus monkey, in vivo", "value": "No dose site reactions were observed"}, {"measurement": "half life time of CNP-38 content", "setting": "[6]; cynomolgus monkey, in vivo, iv", "value": "approx. 24 h"}, {"measurement": "tolerability of dose administrations", "setting": "[6]; single intravenous or subcutaneous, 0.146 mg CNP-38 eq/kg", "value": "well tolerated"}]}
{"molecule": "BMN-111: a CNP variant with increased NEP resistance in development for the treatment of achondroplasia (PGQEHPNARKYKGANKKGLSKGCFGLKLDRIGSMSGLGC; disulfide 23-39; chains of the INN, looked up)", "values": [{"measurement": "haemodynamic effect", "setting": "healthy volunteers [7]", "value": "mild hypotension"}]}
{"molecule": "CC[C@H](C)[C@@H]1NC(=O)[C@H](CCCNC(=N)N)NC(=O)[C@H](CC(=O)O)NC(=O)[C@H](CC(C)C)NC(=O)[C@H](CCCCN)NC(=O)[C@H](CC(C)C)NC(=O)CNC(=O)[C@H](Cc2ccccc2)NC(=O)[C@@H](NC(=O)CNC(=O)[C@H](CCCCN)NC(=O)[C@H](CO)NC(=O)[C@H](CC(C)C)NC(=O)CNC(=O)[C@H](CCCCN)NC(=O)[C@H](CCCCN)NC(=O)[C@H](CC(N)=O)NC(=O)[C@H](C)NC(=O)CNC(=O)[C@H](CCCCN)NC(=O)[C@H](Cc2ccc(O)cc2)NC(=O)[C@H](CCCCN)NC(=O)[C@H](CCCNC(=N)N)NC(=O)[C@H](C)NC(=O)[C@H](CC(N)=O)NC(=O)[C@@H]2CCCN2C(=O)[C@H](Cc2c[nH]cn2)NC(=O)[C@H](CCC(=O)O)NC(=O)[C@H](CCC(N)=O)NC(=O)[C@@H](N)CC(C)C)CSSC[C@@H](C(=O)O)NC(=O)CNC(=O)[C@H](CC(C)C)NC(=O)CNC(=O)[C@H](CO)NC(=O)[C@H](CCSC)NC(=O)[C@H](CO)NC(=O)CNC1=O", "note": "[CNP-38, reference compound]", "values": [{"measurement": "HR (heart rate)", "setting": "Male Crl:CD1(ICR) mice", "value": "not impacted"}, {"measurement": "MAP 5 min post dose (mean ± SD)", "setting": "Male Crl:CD1(ICR) mice", "value": "102.0 ± 7.5", "unit": "mmHg"}, {"measurement": "MAP 15 min post dose (mean ± SD)", "setting": "Male Crl:CD1(ICR) mice", "value": "89.5 ± 29.4", "unit": "mmHg"}, {"measurement": "MAP 30 min post dose (mean ± SD)", "setting": "Male Crl:CD1(ICR) mice", "value": "99.5 ± 25.2", "unit": "mmHg"}, {"measurement": "change in MAP at the 5, 15, and 30 min post dose sampling time points (in words)", "setting": "Male Crl:CD1(ICR) mice", "value": "significant decrease in MAP"}, {"measurement": "MAP predose (mean ± SD)", "setting": "Male Crl:CD1(ICR) mice; predose", "value": "106.8 ± 13.4", "unit": "mmHg"}, {"measurement": "tolerability", "setting": "[8]", "value": "well tolerated"}]}
{"molecule": "Permanent Lys26 CNP-38 PEG 5 kDa Conjugate (LQEHPNARKYKGANKKGLSKGCFGLK(PEG 5 kDa)LDRIGSMSGLGC; cysteine pairing not given here; UniProt P23582 89-126, looked up, fragment) [Compound 19e]", "values": [{"measurement": "half life norm.", "setting": "recombinant human NEP", "value": 62.76, "unit": "h"}]}
{"molecule": "Permanent Lys22 CNP-34 PEG 5 kDa Conjugate [Compound 18e]", "values": [{"measurement": "half life norm.", "setting": "recombinant human NEP", "value": 38.87, "unit": "h"}]}
